We go through three molecules from patent publication US20120316071A1 (published 2012).

Where a chain is given by its changes, count along the chain named. Names and notes keep the numbering of the source.

Assay [1] addresses T1, rHuman EGF R/Fc Chimera, CF (R&D Systems Cat#344-ER) (human, UniProt P00533 25-645).
T1 construct: Bought protein; also called epidermal growth factor receptor
The experiment in a line: ECL multispot (MSD), antigen spotted; blank spot of this well 287.

For assay [2], the target named is T2, rHuman IGF-1 sR, CF (R&D Systems Cat#391-GR) (human, UniProt P08069 31-932).
T2 construct: Bought soluble receptor; also called insulin-like growth factor-1 soluble receptor
Described as above.

For assay [3], the target named is T3, rHuman Erythropoietin R/Fc Chimera, CF (R&D Systems Cat#963-ER) (human, UniProt P19235 25-250).
T3 construct: Bought protein; also called EPO R; EPO R/Fc
T3 sequence (looked up): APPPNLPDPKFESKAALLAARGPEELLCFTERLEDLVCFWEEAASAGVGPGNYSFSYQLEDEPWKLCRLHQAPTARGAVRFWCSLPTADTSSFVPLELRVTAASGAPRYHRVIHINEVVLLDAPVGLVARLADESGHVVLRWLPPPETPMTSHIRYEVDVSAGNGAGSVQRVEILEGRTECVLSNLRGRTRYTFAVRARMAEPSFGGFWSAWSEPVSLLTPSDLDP
The description is as above.

The target of assay [4] is T4, rHuman Notch-1/Fc Chimera, CF (R&D Systems Cat#3647-TK) (human, UniProt P46531 19-526).
T4 construct: Bought protein
Described as above.

The target of assay [5] is T5, rHuman P-Cadherin/Fc Chimera, CF (R&D Systems Cat#861-PC) (human, UniProt P22223 108-654).
T5 construct: Bought protein
Described as above.

Assay [6] concerns the target T6, rHuman HGF R/c-MET/Fc Chimera, CF (R&D Systems Cat#358-MT/CF) (human, UniProt P08581 25-932).
T6 construct: Bought protein; also called HGF R/Fc; hepatocyte growth factor receptor
The description is as above.

In assay [7] the target is T7, Recombinant Human DLL4 (R&D Systems Cat#1506-D4/CF) (human, UniProt Q9NR61 27-524).
T7 construct: Bought recombinant protein; also called delta-like protein 4; rHuman DLL4
The assay is described as above.

Assay [8] addresses T8, rHuman ErbB2/Fc Chimera, CF (R&D Systems Cat#1129-ER) (human, UniProt P04626 23-652).
T8 construct: Bought protein; also called human epidermal growth factor 2 receptor
The assay is described as above.

Assay [9] concerns the target T9, rHuman CD44/Fc Chimera, CF (R&D Systems Cat#3660-CD) (human, UniProt P16070 21-220).
T9 construct: Bought protein
The description is as above.

Assay [10] deals with T1, rHuman EGF R/Fc Chimera, CF (R&D …). The experiment in a line: ECL multispot (MSD), antigen spotted; blank spot of this well 229.
For assay [11], the target named is T2, rHuman IGF-1 sR, CF (R&D Systems …). The description is as above.
Assay [12] has as its target T3, rHuman Erythropoietin R/Fc Chimera, CF …. The description is as above.
For assay [13], the target named is T4, rHuman Notch-1/Fc Chimera, CF (R&D …). The assay is described as above.
In assay [14] the target is T5, rHuman P-Cadherin/Fc Chimera, CF (R&D …). Described as above.
Assay [15] deals with T6, rHuman HGF R/c-MET/Fc Chimera, CF (R&D …). The assay is described as above.
For assay [16], the target named is T7, Recombinant Human DLL4 (R&D Systems …). Described as above.
Assay [17] has as its target T8, rHuman ErbB2/Fc Chimera, CF (R&D …). The assay is described as above.
Assay [18] deals with T9, rHuman CD44/Fc Chimera, CF (R&D Systems …). The description is as above.
Assay [19] deals with T1, rHuman EGF R/Fc Chimera, CF (R&D …). In words: ECL multispot (MSD), antigen spotted; blank spot of this well 209.
The target of assay [20] is T2, rHuman IGF-1 sR, CF (R&D Systems …). The assay is described as above.
Assay [21] deals with T3, rHuman Erythropoietin R/Fc Chimera, CF …. The assay is described as above.
For assay [22], the target named is T4, rHuman Notch-1/Fc Chimera, CF (R&D …). The description is as above.
Assay [23] concerns the target T5, rHuman P-Cadherin/Fc Chimera, CF (R&D …). The assay is described as above.
The target in assay [24] is T6, rHuman HGF R/c-MET/Fc Chimera, CF (R&D …). The description is as above.
For assay [25], the target named is T8, rHuman ErbB2/Fc Chimera, CF (R&D …). The assay is described as above.
Assay [26] has as its target T9, rHuman CD44/Fc Chimera, CF (R&D Systems …). Described as above.
The target in assay [27] is T1, rHuman EGF R/Fc Chimera, CF (R&D …). The experiment in a line: ECL multispot (MSD), antigen spotted; blank spot of this well 273.
Assay [28] deals with T2, rHuman IGF-1 sR, CF (R&D Systems …). The assay is described as above.
Assay [29] concerns the target T3, rHuman Erythropoietin R/Fc Chimera, CF …. The description is as above.
Assay [30] has as its target T4, rHuman Notch-1/Fc Chimera, CF (R&D …). The description is as above.
In assay [31] the target is T5, rHuman P-Cadherin/Fc Chimera, CF (R&D …). Described as above.
Assay [32] addresses T6, rHuman HGF R/c-MET/Fc Chimera, CF (R&D …). Described as above.
Assay [33] deals with T8, rHuman ErbB2/Fc Chimera, CF (R&D …). Described as above.
Assay [34] deals with T9, rHuman CD44/Fc Chimera, CF (R&D Systems …). Described as above.

T6 sequence (P08581 25-932, change not shown): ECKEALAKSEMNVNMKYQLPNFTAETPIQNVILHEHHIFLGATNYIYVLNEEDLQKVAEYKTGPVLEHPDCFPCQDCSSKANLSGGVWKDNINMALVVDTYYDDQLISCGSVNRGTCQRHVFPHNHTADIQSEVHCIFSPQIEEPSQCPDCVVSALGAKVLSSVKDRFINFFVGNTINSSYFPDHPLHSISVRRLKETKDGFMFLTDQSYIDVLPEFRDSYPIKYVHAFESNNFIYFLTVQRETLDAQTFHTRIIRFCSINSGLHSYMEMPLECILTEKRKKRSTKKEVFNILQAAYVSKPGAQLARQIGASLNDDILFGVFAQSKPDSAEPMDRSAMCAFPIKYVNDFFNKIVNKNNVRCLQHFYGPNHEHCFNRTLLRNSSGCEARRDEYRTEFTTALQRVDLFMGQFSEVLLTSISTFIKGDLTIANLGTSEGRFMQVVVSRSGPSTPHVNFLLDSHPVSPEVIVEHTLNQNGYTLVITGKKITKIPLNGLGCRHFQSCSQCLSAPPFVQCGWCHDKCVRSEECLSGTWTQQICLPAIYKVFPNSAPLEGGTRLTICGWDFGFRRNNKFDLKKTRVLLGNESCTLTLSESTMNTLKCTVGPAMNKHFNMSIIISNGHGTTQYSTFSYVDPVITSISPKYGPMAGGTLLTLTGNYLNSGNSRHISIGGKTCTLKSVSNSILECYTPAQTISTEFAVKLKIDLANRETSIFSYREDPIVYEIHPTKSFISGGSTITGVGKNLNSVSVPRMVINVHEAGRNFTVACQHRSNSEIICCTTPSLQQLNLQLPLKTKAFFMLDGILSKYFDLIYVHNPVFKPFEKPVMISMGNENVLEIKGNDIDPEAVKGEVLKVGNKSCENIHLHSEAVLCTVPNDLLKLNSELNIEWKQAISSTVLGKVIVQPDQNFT

B1: Fab VH1-46_IGHD6-6*01_IGHJ1*01 S102A/S103P/S104F (APF) & L6_IGKJ1*01 (Fab, V domains shown)
VH: QVQLVQSGAEVKKPGASVKVSCKASGYTFTSYYMHWVRQAPGQGLEWMGIINPSGGSTSYAQKFQGRVTMTRDTSTSTVYMELSSLRSEDTAVYYCAREEYAPFSAEYFQHWGQGTLVTVSS
VL: not shown
notes: Fab made in E. coli: VH cloned into Plasmid A (CH1, His6 and Flag tags), VL into Plasmid C (kappa CL); Template of the light chain NNK mutants; also called APF / parent; H:APF & L:wt
B1: the ECL signal turned out to be 226 in assay [1]; 162 in [2]; 319 in assay [3]; 358 in [4]; 250 in assay [5]; 344 in [6]. The ECL signal in assay [7] is 2440; in assay [8] it was 317; in [9] it was 205; in [10] it was 363; in [11], 223; in assay [12], 252. In addition, the ECL signal in assay [13] was 398; in assay [14] it was 189; in assay [15] it was 307; in assay [16] it was 2580; in assay [17], 331; in assay [18], 223.

B2: Fab VH1-46_IGHD6-6*01_IGHJ1*01 S102A/S103P/S104F (APF) & L6_IGKJ1*01 R91G (Fab, V domains shown)
VH: B1 VH
VL: EIVLTQSPATLSLSPGERATLSCRASQSVSSYLAWYQQKPGQAPRLLIYDASNRATGIPARFSGSGSGTDFTLTISSLEPEDFAVYYCQQGSNWPPWTFGQGTKVEIKR
notes: Fab made in E. coli: VH cloned into Plasmid A (CH1, His6 and Flag tags), VL into Plasmid C (kappa CL); also called APF / R91G
B2: the ECL signal was 271 in assay [19]; 260 in [20]; 306 in assay [21]; 170 in assay [22]; 235 in [23]; 239 in [24]. The results for the ECL signal in assay [25] and in assay [26] were 236 and 163, respectively.

B3: Fab VH1-46_IGHD6-6*01_IGHJ1*01 S102A/S103P/S104F (APF) & L6_IGKJ1*01 R91L (Fab, V domains shown)
VH: B1 VH
VL: B2 VL with G91L
notes: Fab made in E. coli: VH cloned into Plasmid A (CH1, His6 and Flag tags), VL into Plasmid C (kappa CL); also called APF / R91L
On to B3, for which the ECL signal in assay [27] was determined as 367; in [28] it was 382; in assay [29], 459; in assay [30], 383; in assay [31], 437; in [32] it was 255. For the same molecule, the values for the ECL signal in assay [33] and in assay [34] were 526 and 236, respectively.
